Laboratory results as given in patent publication US20090175847A1.

What was measured:
Aβ(1-42) monomer (human) [1] = test: dot blot densitometry; antigen: Aβ(1-42) monomer, 0.1% NH4OH
[2] = target: Aβ(1-42) globulomer (human) (UniProt P05067); test: dot blot densitometry; antigen: Aβ(1-42) globulomer
Aβ(1-42) monomer (human) [3] = test: dot blot densitometry; antigen: Aβ(1-42) monomer, 0.1% NaOH
Aβ(1-42) fibrils (human) = Aβ(1-42) fibrils (human) (UniProt P05067); test: co-pelleting with Aβ(1-42) fibrils (20 h, 37 °C), SDS-PAGE, densitometry of the antibody heavy chain in pellet and supernatant
Sequence of Aβ(1-42) fibrils (human) (P05067 672-713 limits assumed): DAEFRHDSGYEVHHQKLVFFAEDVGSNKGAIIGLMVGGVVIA

Sequence of Aβ(1-42) monomer (human) (peptide, as listed by the source): as the sequence (P05067 672-713 limits assumed) above
Sequence of Aβ(1-42) globulomer (human) (P05067 672-713 limits assumed): as above

| Substance | relation between recognition of Aβ(20-42) globulomer and the respective Aβ form (Aβ(1-42) monomer (human) [1]) | relation between recognition of Aβ(20-42) globulomer and the respective Aβ form [2] | relation between recognition of Aβ(20-42) globulomer and the respective Aβ form (Aβ(1-42) monomer (human) [3]) | antibody bound to fibrils [%] (Aβ(1-42) fibrils (human)) |
| --- | --- | --- | --- | --- |
| mouse monoclonal antibody 6E10 (Signet No 9320) | 1 | 0.02 | 1 | 91 |
| IgG2a antibody isotype control made against KLH (Keyhole Limpet Hemocyanin) |  |  |  | 9 |
